Assay: yeast display, Sf9 membrane polyspecificity reagent, FACS + sequencing; frameworks hold sequencing errors
In short: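 Using colony PCR, genes from sorted yeast display clones were amplified, then sequenced on MiSeq at 2 × 250 and filtered by CDR length. The clones had been stained with 10% biotinylated, detergent-solubilized Sf9 membrane reagent for 1 hour at 4 °C and sorted by FACS into low and high (top ~1%) gates on anti-HA and streptavidin fluorescence. Polyreactivity labels come from the gate of origin.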

Sequence | polyreactivity (PSR sort gate)
QVQLVESGGGLVQAGGSLRLSCAASGIIIYNYTMGWYRQAPGKERELVAAISRSGGRTYYADSVKGRFTISRDNAKNNVYLQMNSLKPEDTAVYYCAAAGYYHTYWGTMDFWGQGTQVTVSS | high polyreactivity
QVQLVESGGGLVQAGGSLRLSCAASGIILAHYAMGWYRQAPGKERELVAGISRSGTRTYYADSVKGRFTISRDNAKNTVYLQMNSLKPEDTAVYYCNKDAYTYWYFEMGYWGQGTQVTVSS | high polyreactivity
QVQLVESGGGLVQAGGSLRLSCAASGIILATYAMGLYRQAPGKEMELVAAISWSGGRTYYADSVKGRFTISRDKAKNTVYLQMNSLKPEDTAVYYCNAAYPAYGRTQYGRYDYWGQGTQVTVSS | high polyreactivity
QVQLVESGGGLVQAGGSLRLSCAASGIILGSYAMGWYRQAPGTERELVAGITSGGGTYYADSVKGRFTISRDNAKNTVYLQMNSLKPEDTAVYYCAKLYFHYYRYGYWGQGTQVTVSS | low polyreactivity
QVQLVESGGGLVQAGGSLRLSCAASGIILHGYAMGWYRQAAGKEREFVATITVSGSSTYYADSVKGRFTISRDNAKNTVYLQMNSLKPEDTAVYYCAARSWVIVYGLQYDYWGQGTQETVSS | high polyreactivity
QVQLVESGGGLVQAGGSLRLSCAASGIILIHNAMGWYRQARGKERELVAAISTRGGRTYYADSVKGRFTISRDNAKNTVYLQMNSLKPEDTAVYYCAAYRTTPYRDYKMDYLGQGTQVTVSS | high polyreactivity
QVQLVESGGGLVQAGGSLRLSCAASGIILKRNAMGWYRQAPGKERELVAAITSGGTTSYADSVKGRFTISRDNAKNTVYLQLNSLKPEDTAVYYCATRKPVSVYRFAPVYKNSNYWGQGTQVTVSS | high polyreactivity
QVQLVESGGGLVQAGGSLRLSCAASGIILPTYVMGWYRQAPGKERELVAAISRRGGSTYYADSVKGRFTISRDNAKNTVYLQMNSLKPEDTAVYYCNAVSNPVGSAYDYWGQGTQVTVSS | high polyreactivity
QVQLVESGGGLVQAGGSLRLSCAASGIILPYYAMGWYRPAPGKEREFVATISSDGTSTYYADSVKGRFTISRDNAKNTVYLQMNSLKPEDTAVYYCDARIRQNPGGDNSWGQGTQVTVSS | low polyreactivity
QVQLVESGGGLVQAGGSLRLSCAASGIILPYYAMGWYRQAPGKEREFVATISSDGTSTYYADSVKGRFTISRDNAKNTVYLQMNSLKPEDTAVYYCAARIRQNPGGDNSWGQGTQVTVSS | low polyreactivity
QVQLVESGGGLVQAGGSLRLSCAASGIILQKYTMGWYRQAPGKERELVAASTRSGGSTYYADSVKGRFTISRDNAKNTVYLQMNSLKPEDTAVYYCYGYEYWGQGTQVTVSS | high polyreactivity
QVQLVESGGGLVQAGGSLRLSCAASGIILVAYAMGWYRPAPGKERELVAAITTSGTSTYYADSVKGRFTISRDNAKNTVYVQMNSLTPEDTAVYYCAVRQRYGPARYDYWGQGTQVTVSS | high polyreactivity
QVQLVESGGGLVQAGGSLRLSCAASGIILYDYAMGWYRQAPGKERELVAGINRSGGITYYADSVKGRFTISRDNAKNTVYLQMNSLKPEDTAVYYCNAVFRYGATRSYRYDYWGQGTQVTVSS | high polyreactivity
QVQLVESGGGLVQAGGSLRLSCAASGIILYGYAMGWSRQAPGKERELVAAITKSGGSTYYADSVKGRFTISRDNAKNTVYLQMNSLKPEDTAVYYCAAKRWGIWYYGYRPDDYWGQGTQVTVSS | low polyreactivity
QVQLVESGGGLVQAGGSLRLSCAASGIISGRTGMGWYRQATGKERELVASISDSGSSTYYADSVKGRFTISRDNAKNTVYLQMNSLKPEDTAVYYCATDLLASRYGYWGQGTQVTVSS | low polyreactivity
QVQLVESGGGLVQAGGSLRLSCAASGIISIFNVMGWYRQAPGKERELVASITGRGGSTFYADSVKGRFTISRDNAKNTVYLQMNRLKPEDTAVYYCATDTGYTYPVTGLYDYWGQGTQVTVSS | low polyreactivity

Sequence | polyreactivity (PSR sort gate)
QVQLVESGGGLVQAGGSLRLSCAASGIISYYYAMGWYRQAPGKERELVAAISSSGNTYYADSVKGRFTISRDNAKNTVYLQMNSLKPEDTAVYYCAAESYGYYAADDDNYLTWYDYWGQGTQVTVSS | high polyreactivity
QVQLVESGGGLVQAGGSLRLSCAASGIIVPNAMGWYRPAPGKERELVAAMSRSGGSTNYADSVKGRFTISRDNAKNTVYLQMNSLKPEDTAVYYCATKYNADTRYDYWGQGTQVTVSS | low polyreactivity
QVQLVESGGGLVQAGGSLRLSCAASGIIYAYYAMGWYRLAPGKEREWVAGISSSGITNYADSVKGRFTISRDNAKNTVYLQMNSLKPEDTAVYSCATDWYYWRHFYWVRRGVRYYYWGQGTQVTVSS | high polyreactivity
QVQLVESGGGLVQAGGSLRLSCAASGIKLYYYAMGWYRQAPGKETEFVAAIAGSGGSTRYADSVKGRFTISRDNAKKTVYLQMNSLKPEDTAVYYFAARSRYGYITFDYWGQGTQVTVSS | high polyreactivity
QVQLVESGGGLVQAGGSLRLSCAASGILFGGYVMGWDRQAPGKERELVAAISRGGGITYYADSVKGRFTISRDNAKNTVYLQMNSLKPEDPAVYYCNAGVYAGQTGYDYWGQGTQVTVSS | high polyreactivity
QVQLVESGGGLVQAGGSLRLSCAASGILFRFYAMGWYRQAPGKERELVAAISSGGSTYYADSVKGRFTISRDNAKNTVYLQMNSLKPEDTAVYYCNAGRKSTLVGYVRFYYWGQGTQVTVSS | high polyreactivity
QVQLVESGGGLVQAGGSLRLSCAASGILRANAIGWYRQAPGKERELVATINGDGATYADSVKGRFTISRDNAKNTVYLQLNSLKPEDTAVYYCAAGGGWVVKYDYWGQGTQVTVSS | low polyreactivity
QVQLVESGGGLVQAGGSLRLSCAASGINFDDYAMGWYRQAPGTERELVAAITWNGGRTYYADSVKGRFTISRDNAKNTVYLKMNSLKPEDTEVYYCAARITNPAKYNYWGQGTQVTVSS | high polyreactivity
QVQLVESGGGLVQAGGSLRLSCAASGINFRSYAMGWYRQAPGKERELVAAISSTGRTYYADSVKGRFTISRDNAKNTVYLQMISLKPEDTAVYYCNSKRYIWGQGTQVTVSS | high polyreactivity
QVQLVESGGGLVQAGGSLRLSCAASGINFTVYAMGWYRQAPGKVRELVATISRRGGNTFYADSVKGRVTISRDNAKKTVYLKMNSLTPEDTAVYYCAARRYVDYRWDYGYWGQGTQVTVSS | high polyreactivity
QVQLVESGGGLVQAGGSLRLSCAASGINFYSYAMGWYRQAPAKERELVAAITLTVGTTYYADSVKGRFTISRDIEKNTVSLKMNSVKREDTACYYCAAQYWWWSRFEYESWGQGTQVTVSS | low polyreactivity
QVQLVESGGGLVQAGGSLRLSCAASGINIKYNTMGWYRQAPGKERELVAAISSSGGTKYYADSVKGRFTISRDNAKNTVYLQMNSLKPEDTAVYYCAAGANAQRVPNGDYWGQGTQVTVSS | low polyreactivity
QVQLVESGGGLVQAGGSLRLSCAASGINYSRYAMGWYRQAPGKERELVAAISSGGSTNYADSVKGRFTISRDNAKNTVYLQMNSLKPEDTAVYYCAAETRLHRQDYDYWGQGTQVTVSS | low polyreactivity
QVQLVESGGGLVQAGGSLRLSCAASGISDWYAMGWSRQAPGKERELVASITDGGSTKYADSVKGRFTISRDNAKNTVYLQMNSLKPEDTAVYYCNNTFRVYFSRSWWSRYYYWGQGTQVTVSS | low polyreactivity
QVQLVESGGGLVQAGGSLRLSCAASGISDWYAMGWYRQAPGKERELVASITDGGSTKYADSVKGRFTISRDNAKNTVYLQMNSLKPEDTAVYYCNTTFRVYFSRSWWSRYYYWGLGTQVTVSS | low polyreactivity
QVQLVESGGGLVQAGGSLRLSCAASGISFSYYAMGWYRQAPGKERELVAAITSSGGSTYYADSVKGRFTISRDNEKNTVYLQMTSLKPEDTAVYYCNAKRAPWGTLYNYWGLGTQVTVSS | high polyreactivity

From the nanobody polyreactivity screen of Harvey et al. (2022)
